Data taken from US20090031441A1 (NATIONAL UNIVERSITY CORPORATION NAGOYA UNIVERSITY, published 2009).

Molecular target: T1, GAI (Arabidopsis DELLA protein), yeast two-hybrid prey in pGADT7 AD vector (Arabidopsis, UniProt Q9LQT8 1-533)
T1 construct: also called AtDELLA
T1 sequence (looked up): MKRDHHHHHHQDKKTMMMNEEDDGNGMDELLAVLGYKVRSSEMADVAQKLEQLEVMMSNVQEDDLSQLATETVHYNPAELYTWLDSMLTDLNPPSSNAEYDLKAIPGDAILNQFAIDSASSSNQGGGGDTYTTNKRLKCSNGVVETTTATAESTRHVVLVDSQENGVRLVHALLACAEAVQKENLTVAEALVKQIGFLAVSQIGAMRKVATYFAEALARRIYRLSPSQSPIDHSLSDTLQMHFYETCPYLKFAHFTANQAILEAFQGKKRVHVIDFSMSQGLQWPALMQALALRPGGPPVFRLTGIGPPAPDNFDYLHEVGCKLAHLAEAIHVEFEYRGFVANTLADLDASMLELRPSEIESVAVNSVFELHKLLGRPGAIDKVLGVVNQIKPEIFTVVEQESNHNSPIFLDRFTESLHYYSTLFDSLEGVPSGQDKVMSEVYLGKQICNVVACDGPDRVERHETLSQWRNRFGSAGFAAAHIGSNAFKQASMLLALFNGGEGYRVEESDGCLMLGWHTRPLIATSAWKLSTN
Test: yeast two-hybrid without GA (FIG. 11); member GAI named in the legend of FIG. 11
Experimental: Arabidopsis has five DELLA proteins (RGA, GAI, RGL1, RGL2, and RGL3; collectively designated AtDELLA; Fleet, C. M., and Sun, T.-P. (2005) Curr. Opin. Plant Biol., 8, 77-85; Dill, A., and Sun, T. (2001) Genetics, 159, 777-785); therefore, there are 15 possible combinations of GID1/DELLA proteins. To verify the positive interactions between AtGID1-AtDELLA, two experiments were conducted using the yeast two hybrid (Y2H) system. In the first experiment (Assay A), a viable colony assay using a defined medium in which only positive clones would survive was carried out. In the second experiment (Assay B), β-galactosidase activity was measured, as reporter gene product of AtGID1-AtDELLA interactions.
BD Matchmaker Two-hybrid System 3 (Clontech, Palo Alto, Calif., USA; now part of Takara Bio) was used in the Y2H experiments. After confirming the PCR products of the AtGID1 genes by sequencing, PCR products were cloned into pGBKT7 DNA-BD shuttle vector to construct bait plasmids. […]
Thus, GA₄ (10⁻⁵ M) was used and added to the medium. […] As described above, all AtGID1-AtDELLA interactions were detected in a GA-dependent manner; however, interactions between AtGID1b and some AtDELLAs were detected, albeit weakly, in the absence of GA (FIG. 11).

B1: AtGID1b (At3g63010), yeast two-hybrid bait in pGBKT7 DNA-BD vector (receptor, not shown: small tags and cut ends)
chain: MAGGNEVNLNECKRIVPLNTWVLISNFKLAYKVLRRPDGSFNRDLAEFLDRKVPANSFPLDGVFSFDHVDSTTNLLTRIYQPASLLHQTRHGTLELTKPLSTTEIVPVLIFFHGGSFTHSSANSAIYDTFCRRLVTICGVVVVSVDYRRSPEHRYPCAYDDGWNALNWVKSRVWLQSGKDSNVYVYLAGDSSGGNIAHNVAVRATNEGVKVLGNILLHPMFGGQERTQSEKTLDGKYFVTIQDRDWYWRAYLPEGEDRDHPACNPFGPRGQSLKGVNFPKSLVVVAGLDLVQDWQLAYVDGLKKTGLEVNLLYLKQATIGFYFLPNNDHFHCLMEELNKFVHSIEDSQSKSSPVLLTP
notes: Bait fusion for the Y2H assays; also called Arabidopsis GID1
B1: binds.
